Series [1] addresses T1, Rv0792c G80D G80D (Mycobacterium tuberculosis) (UniProt O86331).
T1 sequence: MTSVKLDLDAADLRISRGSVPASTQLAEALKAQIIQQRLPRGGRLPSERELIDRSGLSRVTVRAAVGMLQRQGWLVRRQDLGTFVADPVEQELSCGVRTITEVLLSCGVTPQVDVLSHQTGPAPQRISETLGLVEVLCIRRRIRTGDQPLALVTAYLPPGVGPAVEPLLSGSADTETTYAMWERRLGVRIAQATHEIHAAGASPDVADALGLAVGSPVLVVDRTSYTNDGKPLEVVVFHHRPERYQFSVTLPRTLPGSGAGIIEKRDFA
Description: ALISA (plate-immobilized protein).

The target in series [2] is T2, Rv0792c R49A R49A (Mycobacterium tuberculosis) (UniProt O86331).
T2 sequence: T1 sequence with R49A, D80G
Nature of the series: ALISA (plate-immobilized protein).

The source of these data is PMC9927256, “Structural and Functional Characterization of Rv0792c from Mycobacterium tuberculosis: Identifying Small Molecule Inhibitor against HutC Protein” (Microbiology Spectrum, 2022).

The pKd is the Kd on a negative log10 scale, so that one unit is a factor of ten.

Where a chain is given by its changes, count along the chain named. pKd: −log10 of the molar value.

As for “TCTAGTCATTCGTCATAATCCCATCTGTTTCTTCCTCCTTCCGT [Rv0792c_2 aptamer (also Rv0729c_2)]”, the results for the pKd in series [1] and in series [2] were 6.92 and 7.13, respectively.
